According to patent publication US20210388068A1:

Experiments:
[1] = target: MBP-CfaE-N Arg67Ala mutant (enterotoxigenic Escherichia coli (ETEC)) (UniProt P25734); assay: ELISA on plate-bound MBP-CfaE-N Arg67Ala mutant, OD405
[2] = target: MBP-CfaE-N Arg145Ala mutant (enterotoxigenic Escherichia coli (ETEC)) (UniProt P25734); assay: ELISA on plate-bound MBP-CfaE-N Arg145Ala mutant, OD405
[3] = target: MBP-CfaE-N Asn127Ala mutant (enterotoxigenic Escherichia coli (ETEC)) (UniProt P25734); assay: ELISA on plate-bound MBP-CfaE-N Asn127Ala mutant, OD405
[4] = target: MBP-CfaE-N Thr91Ala mutant (enterotoxigenic Escherichia coli (ETEC)) (UniProt P25734); assay: ELISA on plate-bound MBP-CfaE-N Thr91Ala mutant, OD405

B1: anti-CfaE HuMab 68-90 (antibody, human IgG1, V domains shown)
VH: QVQLQQWGAGLLKPSETLSLTCAVYGGSFSAYYWSWIRQPPGKGLEWIGEINHSGNTNYNPSLESRVTISVDTSKNQVSLKQSSVTAADTAVYYCARNWGPNAFDIWGRGTMVTVSS
VL: DIQMTQSPSSVSASVGDRVTITCRASQDITSWLVWYQHKPGKAPKLLIYAASSLQSGVPSRFSGSGSGTDFTLTISSLQPEDFATYYCQQANIFPYTFGQGTKLEIK
[1]
  EC50 (read off the curve): 0.04 µg/mL
[2]
  EC50 (read off the curve): 0.03 µg/mL
[3]
  EC50 (read off the curve): 0.01 µg/mL
[4]
  EC50 (read off the curve): 0.02 µg/mL

B2: anti-CfaE HuMab 68-61 (antibody, human IgG1, V domains shown)
VH: QVQLVQSGAEVKNPGSSVRVSCEASGGTFSSFAISWVRQAPGQGLEWMGRIIPILDIVKYAQRFQGRVTISADKSTSTAYMELSSLRSEGTAVYYCARDDIAGSDFDIWGQGTMVTVSS
VL: DIQMTQSPSSLSASVGDRVTITCRASQGISSWLAWYQQKPEKAPKSLIYAASSLQSGVPSRFSGSGSGTDFTLTISSLQPEDFATYYCQQYTSYPYTFGQGTKLEIK
[1]
  EC50 (read off the curve): 0.04 µg/mL
[2]
  EC50 (read off the curve): 0.03 µg/mL

B3: anti-CfaE HuMab 68-48 (antibody, human IgG1, V domains shown)
VH: QVQLQQWGAGLLKPSETLSLTCAVYGGSFSGYSWSWIRQSPGKGLEWIGEIYHSGSTNYNPSLKSRVTISGDTSKNQFSLKLSSVTAADTAVYYCARENLQGYYYYGMDVWGQGTTVTVSS
VL: AIQLTQSPSSLSASVGDRVTITCRASQGISSSLAWYQQKPGKAPKLLIYDASSLESGVPSRFSGSGSGTDFTLTISSLQPEDFATYYCQQFNSYPRTFGQGTKVEIK
[1]
  EC50 (read off the curve): 0.04 µg/mL
[2]
  EC50 (read off the curve): 0.03 µg/mL
